Biological target: T1, hepatocyte growth factor beta chain (HGF β) containing a Cys604 to Ser mutation (human, UniProt P14210 495-728)
T1 construct: Expressed in insect cells (baculovirus secretion vector pAcGP67), Val495 placed immediately after the secretion signal; Numbering follows full length HGF starting with MWV as 1-3; also called HGF β-chain; HGF-beta
Assay: complex formation in solution, size exclusion chromatography
Description: Elution fractions were assayed with SDS-PAGE, and those containing the complex were pooled. […] For this, Met, previously purified using Nickel chromatography as described above, was mixed with a combination of PNGase F (Roche) and Endoglycosidase A (Roche) at 1:100 enzyme:Met concentration and incubated at room temperature for 3 hours.

T1 sequence (P14210 other isoform, or with tags, fused parts or gaps limits assumed): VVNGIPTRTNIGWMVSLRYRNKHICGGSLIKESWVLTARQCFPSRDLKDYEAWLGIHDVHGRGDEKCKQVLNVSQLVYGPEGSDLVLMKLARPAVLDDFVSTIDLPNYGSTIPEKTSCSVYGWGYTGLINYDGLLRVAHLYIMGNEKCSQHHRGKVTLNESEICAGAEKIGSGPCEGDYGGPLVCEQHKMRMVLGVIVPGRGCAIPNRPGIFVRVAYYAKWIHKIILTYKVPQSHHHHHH

B1: extracellular fragment of the Met receptor containing residues 25 to 567 (Sema and PSI domain) with thrombin cleavable site and C-terminal (His)8-tag (receptor)
chain: ECKEALAKSEMNVNMKYQLPNFTAETPIQNVILHEHHIFLGATNYIYVLNEEDLQKVAEYKTGPVLEHPDCFPCQDCSSKANLSGGVWKDNINMALVVDTYYDDQLISCGSVNRGTCQRHVFPHNHTADIQSEVHCIFSPQIEEPSQCPDCVVSALGAKVLSSVKDRFINFFVGNTINSSYFPDHPLHSISVRRLKETKDGFMFLTDQSYIDVLPEFRDSYPIKYVHAFESNNFIYFLTVQRETLDAQTFHTRIIRFCSINSGLHSYMEMPLECILTELVPRGSTKKEVFNILQAAYVSKPGAQLARQIGASLNDDILFGVFAQSKPDSAEPMDRSAMCAFPIKYVNDFFNKIVNKNNVRCLQHFYGPNHEHCFNRTLLRNSSGCEARRDEYRTEFTTALQRVDLFMGQFSEVLLTSISTFIKGDLTIANLGTSEGRFMQVVVSRSGPSTPHVNFLLDSHPVSPEVIVEHTLNQNGYTLVITGKKITKIPLNGLGCRHFQSCSQCLSAPPFVQCGWCHDKCVRSEECLSGTWTQQICLPAIYKHHHHHHHH
notes: Expressed in insect cells (pAcGP67A); The complex was obtained with the unprocessed, single chain Met (not cut by thrombin); For better diffraction Met was deglycosylated with PNGase F and Endoglycosidase A before complex formation; also called Met fragment; Met Sema domain
- binding result: binds
